For 17 substances, Antibody binding capacity shown as Delta-binding results are on record in patent US20100279383A1.

Values joined by “and” are separate entries in the source; they are usually repeats but may differ in a detail not shown here. Equal values may be shown once.

The assay addresses anti-Savinase antibody. Put plainly: ELISA, anti-Savinase antibody binding of the variant against Savinase as reference.
“Savinase variant Y167I + R170L + A194P + N218S (from UniProt P29600 1-269) (enzyme)” registered an Antibody binding capacity shown as Delta-binding of 3.2 fold. Next, “Savinase variant Y167I + R170L + N218S (from UniProt P29600 1-269) (enzyme)”: 4.8 fold; “Savinase variant R275E (from UniProt P29600 1-269) (enzyme)”: 2 fold. Next, “Savinase variant N140D + A172D (from UniProt P29600 1-269) (enzyme)”: 3.8 fold.

“Savinase variant R170F (from UniProt P29600 1-269) (enzyme)” showed an Antibody binding capacity shown as Delta-binding of 2.4 fold. Next, “Savinase variant R247E (from UniProt P29600 1-269) (enzyme)”: 2 fold. Next, “Savinase variant S57P + Y167F + R247Q (from UniProt P29600 1-269) (enzyme)”: 3 fold; “Savinase variant D181N (from UniProt P29600 1-269) (enzyme)”: 2.9 fold.

Regarding “Savinase variant R247Q (from UniProt P29600 1-269) (enzyme)”, the Antibody binding capacity shown as Delta-binding stood at 2 fold. Next, “Savinase variant S57P + R170L (from UniProt P29600 1-269) (enzyme)”: 2.1 fold; “Savinase variant S57P + R170L + R247Q (from UniProt P29600 1-269) (enzyme)”: 2.1 fold and 2 fold. Next, “Savinase variant N18D (from UniProt P29600 1-269) (enzyme)”: 2 fold; “Savinase variant E136R (from UniProt P29600 1-269) (enzyme)”: 2.8 fold; “Savinase variant R170L + Q206E (from UniProt P29600 1-269) (enzyme)”: 2.1 fold. Next, “Savinase variant E136R + N140D (from UniProt P29600 1-269) (enzyme)”: 2.1 fold; “Savinase variant R247K (from UniProt P29600 1-269) (enzyme)”: 2 fold. Turning to “Savinase variant R247H (from UniProt P29600 1-269) (enzyme)”, the Antibody binding capacity shown as Delta-binding was determined as 2 fold.
